Laboratory results taken from the supplement of paper PMC12042874.
± gives the uncertainty stated by the source.

Test: amyloid nucleation score (Sup35N fusion, yeast selection) (log enrichment); library NNK3; higher = more nucleation; inactive = no reads after selection
In short: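 After 24 hours of induction with 100 μM copper sulfate, psi-negative yeast expressing peptides of 20 random codons fused to Sup35N were grown for 7 days at 30°C on medium lacking adenine and uracil. Input and output plasmid inserts were sequenced with Illumina, and sequences with under 100 input reads were discarded. Scores for nucleation are the DiMSum log enrichment of output over input reads, centred on the mode score of non-aggregating sequences.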

Q: With CFFIVGLARIFGLVPVA as the substance, how does the amyloid nucleation score read?
A: 0.804 ± 0.12

Q: For TAFTGIRTWHCHCKRSYSLG, which amyloid nucleation score is on record?
A: inactive

Q: For GYWGTLSERPYTELIAGTSI, which amyloid nucleation score is on record?
A: inactive

Q: For KVTFKYLLKSVSLGQGTT, which amyloid nucleation score is on record?
A: 0.341 ± 0.28

Q: With SGQNKEQVVWMCTVRLPESS as the substance, how does the amyloid nucleation score read?
A: inactive

Q: For TENCEFFTNPPARPYG, which amyloid nucleation score is on record?
A: inactive

Q: With SDKLSFSRDPSVMRVGQVQR as the substance, how does the amyloid nucleation score read?
A: inactive

Q: With VHFKRVEKG as the substance, how does the amyloid nucleation score read?
A: inactive

Q: For MNRTFVIIVKNVASMIKDNR, which amyloid nucleation score is on record?
A: 2.1 ± 0.1

Q: Which amyloid nucleation score does the source give for NTIRKKNLLFQAWLC here?
A: inactive

Q: Which amyloid nucleation score does the source give for NKGLNL here?
A: inactive

Q: With YIALCLRYHTFLMKQEFHVG as the substance, how does the amyloid nucleation score read?
A: inactive

Q: Which amyloid nucleation score does the source give for RRKYW here?
A: inactive

Q: For LSCHETCLVISGLCMLMMRL, which amyloid nucleation score is on record?
A: inactive

Q: With PDNFNSRFNTRFKTHTRHPT as the substance, how does the amyloid nucleation score read?
A: inactive

Q: With NNSGLSFFSNLGWVLHGDLV as the substance, how does the amyloid nucleation score read?
A: inactive

Q: Which amyloid nucleation score does the source give for FIVSPPSNGANVY here?
A: inactive

Q: For EMDTCIQWLSRVLSGPDSFF, which amyloid nucleation score is on record?
A: -0.72 ± 0.8

Q: Which amyloid nucleation score does the source give for TSSHLIGLFYDMLFRDTRSM here?
A: inactive

Q: With DFWRYDSS as the substance, how does the amyloid nucleation score read?
A: inactive

Q: With YYDYLRWLLEHIHFCTWGPY as the substance, how does the amyloid nucleation score read?
A: inactive

Q: Which amyloid nucleation score does the source give for GVGPVGRF here?
A: inactive

Q: For FVLHNS, which amyloid nucleation score is on record?
A: inactive

Q: For CKFEMSEIDFVYASSIFR, which amyloid nucleation score is on record?
A: inactive

Q: For YLISNVFIVLSVDLCDVLGL, which amyloid nucleation score is on record?
A: 2.44 ± 0.072

Q: Which amyloid nucleation score does the source give for KSVRNTAHLWHCVLTIYVYL here?
A: inactive

Q: With CMRSESCVVPRNNKFFLLSG as the substance, how does the amyloid nucleation score read?
A: -0.361 ± 0.96

Q: With SIMREMWWSDTLFGGMNRFW as the substance, how does the amyloid nucleation score read?
A: 0.992 ± 0.11

Q: Which amyloid nucleation score does the source give for VNFILSTAHLL here?
A: inactive

Q: With MMSDLILV as the substance, how does the amyloid nucleation score read?
A: -0.43 ± 1

Q: For RISKA, which amyloid nucleation score is on record?
A: inactive

Q: Which amyloid nucleation score does the source give for GSALCHCLCNMEVMSYFVAF here?
A: inactive

Q: Which amyloid nucleation score does the source give for NQCIAYYGISRLWQM here?
A: inactive

Q: Which amyloid nucleation score does the source give for FSLTLCWHWSWVQCAGVPWG here?
A: 2.05 ± 0.097

Q: With SHIFCSFFKSSYLNSGWQHG as the substance, how does the amyloid nucleation score read?
A: inactive

Q: With YVWASIFFFTSYDEVVGRHV as the substance, how does the amyloid nucleation score read?
A: 1.46 ± 0.13

Q: Which amyloid nucleation score does the source give for VANIFVVISIVGVDTRLFIV here?
A: 0.519 ± 0.23

Q: With HLYHENSVFQLCVCTFVYSS as the substance, how does the amyloid nucleation score read?
A: 2.91 ± 0.069

Q: Which amyloid nucleation score does the source give for LWANNGSCFMCEYSHDGGKN here?
A: inactive

Q: For DGRSIEFIDGCDVYSICSRE, which amyloid nucleation score is on record?
A: inactive

Q: With RNCLIYGHNDILGISRLSDF as the substance, how does the amyloid nucleation score read?
A: inactive

Q: With YLTEWDLGNVWRNPSAATPM as the substance, how does the amyloid nucleation score read?
A: inactive

Q: Which amyloid nucleation score does the source give for TNLSSSFLTQLRVILMSFLG here?
A: 0.798 ± 0.2

Q: With MWVSAYWYNTCRYRFLSV as the substance, how does the amyloid nucleation score read?
A: inactive

Q: For NLFDGTN, which amyloid nucleation score is on record?
A: inactive

Q: For MDVWASYMTVSESVCSSLVR, which amyloid nucleation score is on record?
A: inactive

Q: With LPKCQLLLRRCRV as the substance, how does the amyloid nucleation score read?
A: inactive

Q: For KINDCYGYYDLYWNWSIVRF, which amyloid nucleation score is on record?
A: inactive

Q: For GTRLRVGILIPRWDSGTFGF, which amyloid nucleation score is on record?
A: inactive

Q: Which amyloid nucleation score does the source give for IFWSFTGT here?
A: inactive

Q: Which amyloid nucleation score does the source give for RWRIEEPTI here?
A: inactive

Q: Which amyloid nucleation score does the source give for SMSGWCVETFLRQEM here?
A: inactive

Q: For MRARLFNRITYIGNECNVLS, which amyloid nucleation score is on record?
A: inactive

Q: For HNWNRFTQSILWGTYNFFVG, which amyloid nucleation score is on record?
A: 2.26 ± 0.085

Q: With PLFHVFLELYTLPFVENFDV as the substance, how does the amyloid nucleation score read?
A: inactive

Q: With RDIISMIVGWVLLQYLTTTY as the substance, how does the amyloid nucleation score read?
A: -0.888 ± 1

Q: With FLRCTRPPTASENIFRDINY as the substance, how does the amyloid nucleation score read?
A: inactive

Q: Which amyloid nucleation score does the source give for FVLIIYLLACSEMLFVFKEV here?
A: inactive

Q: For RLGSSNV, which amyloid nucleation score is on record?
A: inactive

Q: Which amyloid nucleation score does the source give for IDCILVTGLHVDLLEWQKRQ here?
A: 2.03 ± 0.086

Q: Which amyloid nucleation score does the source give for RLTACASYIGINGRSRN here?
A: inactive

Q: Which amyloid nucleation score does the source give for CVYIDGSIAVGWYMKFILTF here?
A: inactive

Q: For YFKRCQGNEQFSRNRNANGA, which amyloid nucleation score is on record?
A: inactive

Q: Which amyloid nucleation score does the source give for CDTSFKIDELPYSASLHFAF here?
A: inactive

Q: With CSPVTCEISDWIV as the substance, how does the amyloid nucleation score read?
A: inactive
